The results in this text go back to patent US20150017095A1 (AbbVie / Abbott, published 2015).

Positions count from the first letter of the chain named.

Test [1] deals with T1, Recombinant Human IL-6 sR (human, UniProt P08887 20-358).
T1 construct: domain: IL-6 sR; Bought reagent; also called IL-6R
T1 sequence (looked up): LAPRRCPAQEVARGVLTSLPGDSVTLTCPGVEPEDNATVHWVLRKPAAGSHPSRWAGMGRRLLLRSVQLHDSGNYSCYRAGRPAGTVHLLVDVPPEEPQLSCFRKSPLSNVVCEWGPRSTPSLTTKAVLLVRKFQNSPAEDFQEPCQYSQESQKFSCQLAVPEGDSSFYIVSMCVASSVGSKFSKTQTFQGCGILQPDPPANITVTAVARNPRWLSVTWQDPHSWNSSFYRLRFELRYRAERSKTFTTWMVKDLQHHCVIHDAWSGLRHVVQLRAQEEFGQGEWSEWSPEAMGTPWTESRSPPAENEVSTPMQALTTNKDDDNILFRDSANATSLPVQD
As to the kind of experiment: direct bind ELISA, antigen coated on plate (C-terminal VD). Here is the method:
(§1) Enzyme Linked Immunosorbent Assays to screen for antibodies that bind a desired target antigen were performed as follows. High bind ELISA plates (Corning Costar #3369, Acton, Mass.) were coated with 100 μL/well of 10 μg/ml of desired target antigen (R&D Systems, Minneapolis, Minn.) or desired target antigen extra-cellular domain/FC fusion protein (R&D Systems, Minneapolis, Minn.) or monoclonal mouse anti-polyHistidine antibody (R&D Systems # MAB050, Minneapolis, Minn.) in phosphate buffered saline (10×PBS, Abbott Bioresearch Center, Media Prep# MPS-073, Worcester, Mass.) overnight at 4° C. Plates were washed four times with PBS containing 0.02% Tween 20. Plates were blocked by the addition of 300 μL/well blocking solution (non-fat dry milk powder, various retail suppliers, diluted to 2% in PBS) for ½ hour at room temperature. Plates were washed four times after blocking with PBS containing 0.02% Tween 20.
(§2) Plates were washed 4 times with PBS containing 0.02% Tween 20.
(§3) One hundred microliters of enhanced TMB solution (Neogen Corp. #308177, K Blue, Lexington, Ky.) was added to each well and incubated for 10 minutes at room temperature. The reaction was stopped by the addition of 50 μL 1N sulphuric acid.

For test [2], the target named is T1, Recombinant Human IL-6 sR. The experiment in a line: BIACORE SPR, DVD-Ig captured, antigen in flow (C-terminal VD). Here is the method:
(§4) The BIACORE assay (Biacore, Inc, Piscataway, N.J.) determines the affinity of antibodies or DVD-Ig with kinetic measurements of on-rate and off-rate constants. […] All chemicals are obtained from Biacore® AB (Uppsala, Sweden) or otherwise from a different source as described in the text. For example, approximately 5000 RU of goat anti-mouse IgG, (Fcγ), fragment specific polyclonal antibody (Pierce Biotechnology Inc, Rockford, Ill.) diluted in 10 mM sodium acetate (pH 4.5) is directly immobilized across a CM5 research grade biosensor chip using a standard amine coupling kit according to manufacturer's instructions and procedures at 25 μg/ml. Unreacted moieties on the biosensor surface are blocked with ethanolamine. Modified carboxymethyl dextran surface in flowcell 2 and 4 is used as a reaction surface. Unmodified carboxymethyl dextran without goat anti-mouse IgG in flow cell 1 and 3 is used as the reference surface. For kinetic analysis, rate equations derived from the 1:1 Langmuir binding model are fitted simultaneously to association and dissociation phases of all eight injections (using global fit analysis) with the use of Biaevaluation 4.0.1 software. Purified antibodies or DVD-Ig are diluted in HEPES-buffered saline for capture across goat anti-mouse IgG specific reaction surfaces. Antibodies or DVD-Ig to be captured as a ligand (25 μg/m) are injected over reaction matrices at a flow rate of 5 μl/min. The association and dissociation rate constants, kₒₙ (M⁻¹s⁻¹) and koff (s⁻¹) are determined under a continuous flow rate of 25 μl/min. Rate constants are derived by making kinetic binding measurements at different antigen concentrations ranging from 10-200 nM. The equilibrium dissociation constant (M) of the reaction between antibodies or DVD-Igs and the target antigen is then calculated from the kinetic rate constants by the following formula: KD=koff/kₒₙ. Binding is recorded as a function of time and kinetic rate constants are calculated.

The target of the next test is Recombinant Human β-NGF (human, UniProt P01138 122-239, limits assumed). As to the kind of experiment: BIACORE SPR, DVD-Ig captured, antigen in flow (C-terminal VD); BIACORE, DVD-Ig captured, NGF in flow, 25 C; C-terminal VD. Here is the method:
as §4
On the technique in general: In SPR one partner is held on a chip, and binding of the other changes the refractive index at the surface.

Test [3] addresses T2, murine TNFα (murine, UniProt P06804 80-235).
T2 sequence (looked up): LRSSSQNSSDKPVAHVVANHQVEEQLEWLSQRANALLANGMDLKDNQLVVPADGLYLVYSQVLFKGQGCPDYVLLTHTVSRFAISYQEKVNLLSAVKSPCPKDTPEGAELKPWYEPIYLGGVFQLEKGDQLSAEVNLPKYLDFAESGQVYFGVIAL
The experiment in a line: cell-based or functional assay.

Test [4] addresses T2, murine TNFα. As to the kind of experiment: ELISA, TNFα binding activity (Example 2.2.3.3). In general terms: An ELISA detects its analyte on a solid surface through an enzyme-linked reagent.
Another test concerns the target Recombinant Human IL-15 (human, UniProt P40933 49-162). As to the kind of experiment: BIACORE SPR, DVD-Ig captured, antigen in flow (N-terminal VD). As to the method: as §4
Test [5] deals with T1, Recombinant Human IL-6 sR. As to the kind of experiment: direct bind ELISA, antigen coated on plate. As to the method:
as §1, §2, §3

Test [6] deals with T1, Recombinant Human IL-6 sR. The experiment in a line: BIACORE SPR, antibody captured, antigen in flow. As to the method:
as §4

Chain of Recombinant Human IL-15 (P40933 49-162 limits assumed): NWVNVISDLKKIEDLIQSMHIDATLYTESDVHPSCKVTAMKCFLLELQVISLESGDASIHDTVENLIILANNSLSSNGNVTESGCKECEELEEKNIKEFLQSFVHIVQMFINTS
Chain of Recombinant Human β-NGF (P01138 122-239 limits assumed): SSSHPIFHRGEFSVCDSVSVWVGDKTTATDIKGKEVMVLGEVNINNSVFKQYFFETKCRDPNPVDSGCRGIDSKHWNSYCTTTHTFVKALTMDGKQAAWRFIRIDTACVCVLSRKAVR

B1: DVD151 (PGE2 / IL-6R DVD-Ig) (bispecific antibody, human IgG1)
VH: EVQLVQSGAEVKKPGASVKVSCKASGYTFTKYWLGWVRQAPGQGLEWMGDIYPGYDYTHYNEKFKDRVTLTTDTSTSTAYMELRSLRSDDTAVYYCARSDGSSTYWGQGTLVTVSSASTKGPEVQLQESGPGLVRPSQTLSLTCTVSGYSITSDHAWSWVRQPPGRGLEWIGYISYSGITTYNPSLKSRVTMLRDTSKNQFSLRLSSVTAADTAVYYCARSLARTTAMDYWGQGSLVTVSS
VL: DVLMTQTPLSLPVTPGEPASISCTSSQNIVHSNGNTYLEWYLQKPGQSPQLLIYKVSNRFSGVPDRFSGSGSGTDFTLKISRVEAEDVGVYYCFQVSHVPYTFGGGTKVEIKRTVAAPDIQMTQSPSSLSASVGDRVTITCRASQDISSYLNWYQQKPGKAPKLLIYYTSRLHSGVPSRFSGSGSGTDFTFTISSLQPEDIATYYCQQGNTLPYTFGQGTKVEIKR
notes: Outer domain is AB048 (PGE2), inner domain is AB054 (IL-6R); also called VD151H; VD151L
By EC50 is commonly meant the concentration needed to bring the measured effect to its halfway point. Broadly, the Kd is a measure of binding affinity in units of concentration. Broadly, the koff is the first-order rate constant of dissociation. One may read the kon as a measure of how fast the partners come together. B1: the EC50 in test [1] came out at 26500 nM. Also, in test [2], the Kd was 5.94 nM, the koff came to 0.00015 s⁻¹ and the kon was 25300 M⁻¹ s⁻¹.

B2: DVD163 (PGE2 / NGF DVD-Ig) (bispecific antibody)
VH: EVQLVQSGAEVKKPGASVKVSCKASGYTFTKYWLGWVRQAPGQGLEWMGDIYPGYDYTHYNEKFKDRVTLTTDTSTSTAYMELRSLRSDDTAVYYCARSDGSSTYWGQGTLVTVSSASTKGPQVQLQESGPGLVKPSETLSLTCTVSGFSLIGYDLNWIRQPPGKGLEWIGIIWGDGTTDYNSAVKSRVTISKDTSKNQFSLKLSSVTAADTAVYYCARGGYWYATSYYFDYWGQGTLVTVSS
VL: B1 VL with D146S, S149N, Y150N, L172F, G209E, N210H, V222L
notes: Outer domain is AB048 (PGE2), inner domain is AB020 (NGF); also called VD163H; VD3163L
For B2, in the test with Recombinant Human β-NGF, the equilibrium dissociation constant (Kd) worked out at 0.122 nM, the koff worked out at 1.03e-06 s⁻¹ and the kon stood at 8400 M⁻¹ s⁻¹.

B3: anti-TNFα monoclonal antibody clone 8C11 (antibody, V domains shown)
VH: EFQLQQSGPELVKPGASVRISCKASGYSFTDYNMNWVKQSNGKSLEWVGVINPNYGSSTYNQKFKGKATLTVDQSSSTAYMQLNSLTSEDSAVYYCARKWGQLGRGFFDVWGTGTTVTVSS
VL: QIVLSQSPAILSASPGEKVTMTCRASSSVSYMHWFQQKPGSSPKPWIYATSNLASGVPARFSGSGSGTSYSLTISRVEAEDAATYYCQQWSSSPLTFGAGTKLELKR
notes: Murine hybridoma antibody against murine TNFα; also called 8C11-1E10; anti-mouse TNF monoclonal antibody
In general, IC50 refers to the concentration needed to halve the response being measured. Lower therefore signals greater potency. Consider B3, for which the “IC50, L929 assay (TNFα-induced cell death)” value (“IC50, L929 assay” for short) with murine TNFα [3] is 5.85 nM. For the same molecule, the IC50 with murine TNFα [4] is 0.201 nM.

B4: 2B5-hLL-8C11 anti-murine TNFα/anti-PGE2 DVD-Ig with human long linker (bispecific antibody, human IgG1)
VH: QVQLQQSGPELVRPGSSVKISCKASGYTFTKYWLGWVKQRPGHGLEWIGDIYPGYDYTHYNEKFKDKATLTVDTSSSTAYMQLSSLTSEDSAIYYCARSDGSSTYWGQGTLVTVSAASTKGPSVFPLAPEFQLQQSGPELVKPGASVRISCKASGYSFTDYNMNWVKQSNGKSLEWVGVINPNYGSSTYNQKFKGKATLTVDQSSSTAYMQLNSLTSEDSAVYYCARKWGQLGRGFFDVWGTGTTVTVSS
VL: DVLMTQTPLSLPVSLGDQASISCTSSQNIVHSNGNTYLEWYLQRPGQSPKLLIYKVSNRFSGVPDRFSGSGSGTVFTLKISRVEAEDLGVYYCFQVSHVPYTFGGGTKLEIKRTVAAPSVFIFPPQIVLSQSPAILSASPGEKVTMTCRASSSVSYMHWFQQKPGSSPKPWIYATSNLASGVPARFSGSGSGTSYSLTISRVEAEDAATYYCQQWSSSPLTFGAGTKLELKR
notes: DVD-Ig; Outer domain is 2B5 (PGE2), inner domain is 8C11 (murine TNFα)
As for B4, in the test with murine TNFα [3], the “IC50, L929 assay” value was determined as 0.088 nM. In the test with murine TNFα [4], this molecule came in with an IC50 of 0.256 nM.

B5: 2B5-hSL-8C11 anti-murine TNFα/anti-PGE2 DVD-Ig with human short linker (bispecific antibody)
VH: QVQLQQSGPELVRPGSSVKISCKASGYTFTKYWLGWVKQRPGHGLEWIGDIYPGYDYTHYNEKFKDKATLTVDTSSSTAYMQLSSLTSEDSAIYYCARSDGSSTYWGQGTLVTVSAASTKGPEFQLQQSGPELVKPGASVRISCKASGYSFTDYNMNWVKQSNGKSLEWVGVINPNYGSSTYNQKFKGKATLTVDQSSSTAYMQLNSLTSEDSAVYYCARKWGQLGRGFFDVWGTGTTVTVSS
VL: DVLMTQTPLSLPVSLGDQASISCTSSQNIVHSNGNTYLEWYLQRPGQSPKLLIYKVSNRFSGVPDRFSGSGSGTVFTLKISRVEAEDLGVYYCFQVSHVPYTFGGGTKLEIKRTVAAPQIVLSQSPAILSASPGEKVTMTCRASSSVSYMHWFQQKPGSSPKPWIYATSNLASGVPARFSGSGSGTSYSLTISRVEAEDAATYYCQQWSSSPLTFGAGTKLELKR
notes: DVD-Ig; Outer domain is 2B5 (PGE2), inner domain is 8C11 (murine TNFα); also called 2B5-huSL-8C11
With B5, the “IC50, L929 assay” value with murine TNFα [3] came out at 4.39 nM. Besides, the IC50 with murine TNFα [4] is 0.234 nM.

B6: DVD154 (IL-15 / PGE2 DVD-Ig) (bispecific antibody)
VH: EVQLVQSGAEVKKPGESLKISCKVSGYFFTTYWIGWVRQMPGKGLEYMGIIYPGDSDTRYSPSFQGQVTISADKSISTAYLQWSSLKASDTAMYYCARGGNWNCFDYWGQGTLVTVSSASTKGPEVQLVQSGAEVKKPGASVKVSCKASGYTFTKYWLGWVRQAPGQGLEWMGDIYPGYDYTHYNEKFKDRVTLTTDTSTSTAYMELRSLRSDDTAVYYCARSDGSSTYWGQGTLVTVSS
VL: EIVLTQSPGTLSLSPGERATLSCRASQSVSSSYLAWYQQKPGQAPRLLIYGASRRATGIPDRFSGSGSGTDFTLTISRLEPEDFAVYYCQRYGSSHTFGQGTKLEISRTVAAPDVLMTQTPLSLPVTPGEPASISCTSSQNIVHSNGNTYLEWYLQKPGQSPQLLIYKVSNRFSGVPDRFSGSGSGTDFTLKISRVEAEDVGVYYCFQVSHVPYTFGGGTKVEIKR
notes: Outer domain is AB049 (IL-15), inner domain is AB048 (PGE2); also called VD154H; VD154L
For the molecule B6, in the test with Recombinant Human IL-15, the Kd was 4.89 nM, the koff is 0.00198 s⁻¹ and the kon is 404000 M⁻¹ s⁻¹.

B7: AB054 anti-IL-6R parent antibody (antibody, human IgG1, V domains shown)
VH: EVQLQESGPGLVRPSQTLSLTCTVSGYSITSDHAWSWVRQPPGRGLEWIGYISYSGITTYNPSLKSRVTMLRDTSKNQFSLRLSSVTAADTAVYYCARSLARTTAMDYWGQGSLVTVSS
VL: DIQMTQSPSSLSASVGDRVTITCRASQDISSYLNWYQQKPGKAPKLLIYYTSRLHSGVPSRFSGSGSGTDFTFTISSLQPEDIATYYCQQGNTLPYTFGQGTKVEIKR
Consider B7, for which the EC50 in test [5] worked out at 1.75 nM. Moreover, in test [6], the Kd turned out to be 0.448 nM, the off-rate constant (koff) stood at 0.00016 s⁻¹ and the kon worked out at 357000 M⁻¹ s⁻¹.
